The text below walks through data of the supplement of paper PMC7877785.

± gives the uncertainty stated by the source.

A short description of the series: self-splicing fitness, log relative to wild type (ln ratio); higher = more splicing; Tetrahymena group I intron in knt gene, E. coli kanamycin selection, DiMSum; sequences stand for … in CUCUCU…GGAGGGAAAAGUUAUCAGGCAUGCACCUGGUAGCUAGUCUUUAAACCAAUAGAUUGCAUCGGUUUAAAAGGCAAGACCGUCAAAUUGCGGGAAAGGGGUCAACAGCCGUUCAGUACCAAGUCUCAGGGGAAACUUUGAGAUGGCCUUGCAAAGGGUAUGGUAAUAAGCUGACGGACAUGGUCCUAACCACGCAGCCAAGUCCUAAGUCAACAGAUCUUCUGUUGAUAUGGAUGCAGUUCACAGACUAAAUGUCGGUCGGGGAAGAUGUAUUCUUCUCAUAAGAUAUAGUCGGACCUCUCCUUAAUGGGAGCUAGCGGAUGAAGUGAUGCAACACUGGAGCCGCUGGGAACUAAUUUGUAUGCGAAAGUAUAUUGAUUAGUUUUGGAGUACUCGUGGUCG
The method in brief: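 Six replicate transformations of E. coli BL21(DE3) with a pET-22b(+) library were grown overnight at 37°C or 30°C. The library randomised all eight P1ex-region intron nucleotides, the intron lying in the knt kanamycin-resistance gene, and plates were LB agar with or without 25 μg/mL kanamycin plus 100 μg/mL carbenicillin, 50 μM IPTG and 0.2% rhamnose. Pooled colonies were amplicon-sequenced on an Illumina HiSeq 2500, and fitness is the DiMSum error-weighted combination of wild-type-normalised replicate fold changes, kanamycin versus none.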

With CUUAAGCAAUAUUACGGGGA, the “self-splicing fitness (ln)” value is, setting by setting: (30 °C) -3.46 ± 0.29; (37 °C) -2.16 ± 0.18. For the sequence AUCAAGCAAUAUUACGGUAA, the “self-splicing fitness (ln)” value is -2.12 ± 0.12 (30 °C) and -0.319 ± 0.084 (37 °C).

GAGUAGCAAUAUUACGAUUA: the “self-splicing fitness (ln)” value (30 °C) is -0.577 ± 0.092 and the “self-splicing fitness (ln)” value (37 °C) is -0.317 ± 0.081. Taken in the same sequence, the figures for ACUCAGCAAUAUUACGCUAA were -1.63 ± 0.1 and -0.781 ± 0.1.

Turning to GACAAGCAAUAUUACGCUGA, the “self-splicing fitness (ln)” value runs as follows: (30 °C) -2.53 ± 0.13; (37 °C) -1.55 ± 0.11. Turning to GCUGAGCAAUAUUACGUUAC, the “self-splicing fitness (ln)” value (37 °C) was -2.37 ± 0.32. Take GCCCAGCAAUAUUACGAGUG: the “self-splicing fitness (ln)” value by setting is: (30 °C) -1.37 ± 0.076; (37 °C) -0.365 ± 0.085.

Turning to GUUCAGCAAUAUUACGCAUG, the “self-splicing fitness (ln)” value was -0.538 ± 0.1 (30 °C) and -1.02 ± 0.13 (37 °C). Taken in the same sequence, the figures for AUGGAGCAAUAUUACGUCCA were -0.783 ± 0.45 and -0.778 ± 0.34. For the sequence UCUUAGCAAUAUUACGCACC, the “self-splicing fitness (ln)” value (37 °C) is -1.21 ± 0.37. Turning to CGGGAGCAAUAUUACGAAUG, the “self-splicing fitness (ln)” value is -3.6 ± 0.21 (30 °C) and -1.1 ± 0.15 (37 °C). In the same order, the values of UUGCAGCAAUAUUACGUAGG are -0.924 ± 0.086 and -0.486 ± 0.11. For GGAUAGCAAUAUUACGGCUG, the “self-splicing fitness (ln)” value reads like this: (30 °C) -0.385 ± 0.14; (37 °C) -0.733 ± 0.18. In the same order, the values of UUGCAGCAAUAUUACGGUCC are -4.25 ± 0.39 and -2.69 ± 0.26. In the same order, the values of CAAAAGCAAUAUUACGACGG are 0.122 ± 0.076 and -0.14 ± 0.09. In the case of GGUAAGCAAUAUUACGCACU, the “self-splicing fitness (ln)” value (37 °C) was -2.23 ± 0.2.

Regarding CAACAGCAAUAUUACGAUUA, the “self-splicing fitness (ln)” value by setting is: (30 °C) -0.522 ± 0.082; (37 °C) -0.185 ± 0.082. Taken in the same sequence, the figures for GAACAGCAAUAUUACGUGCC were -2.58 ± 0.14 and -0.859 ± 0.12. In the same order, the values of AAAAAGCAAUAUUACGGGGG are -3.27 ± 0.17 and -2.76 ± 0.18.

Consider AAACAGCAAUAUUACGCUGU, for which the “self-splicing fitness (ln)” value is -3.85 ± 0.14 (30 °C) and -1.89 ± 0.096 (37 °C). Taken in the same sequence, the figures for CUCCAGCAAUAUUACGGAUC were -1.86 ± 0.099 and -1.47 ± 0.14. Taken in the same sequence, the figures for UCUCAGCAAUAUUACGCACU were -0.801 ± 0.13 and -0.465 ± 0.14. Taken in the same sequence, the figures for GCUCAGCAAUAUUACGACCG were -1.52 ± 0.17 and -0.109 ± 0.17. With ACGCAGCAAUAUUACGUAAA, the “self-splicing fitness (ln)” value runs as follows: (30 °C) -2.06 ± 0.12; (37 °C) -1.95 ± 0.2.

With UAGAAGCAAUAUUACGAGUU, the “self-splicing fitness (ln)” value (37 °C) was -2.07 ± 0.33. As to UGGUAGCAAUAUUACGGGCG, the “self-splicing fitness (ln)” value by setting is: (30 °C) 0.0756 ± 0.11; (37 °C) 0.475 ± 0.12.

Regarding GCCGAGCAAUAUUACGUGUA, the “self-splicing fitness (ln)” value (30 °C) is -1.32 ± 0.071 and the “self-splicing fitness (ln)” value (37 °C) is -0.983 ± 0.078. With AUAGAGCAAUAUUACGAUUA, the “self-splicing fitness (ln)” value (30 °C) was -2.45 ± 0.21 and the “self-splicing fitness (ln)” value (37 °C) is -0.158 ± 0.17.

As for GAACAGCAAUAUUACGAUAC, the “self-splicing fitness (ln)” value reads like this: (30 °C) -0.825 ± 0.065; (37 °C) -0.127 ± 0.087. As for CUGCAGCAAUAUUACGUAGA, the “self-splicing fitness (ln)” value is, setting by setting: (30 °C) -3.08 ± 0.15; (37 °C) -3.35 ± 0.3. Taken in the same sequence, the figures for AUAUAGCAAUAUUACGGAAG were -3.08 ± 0.36 and -1.27 ± 0.34.

Consider GCAAAGCAAUAUUACGGCAG, for which the “self-splicing fitness (ln)” value was -3.61 ± 0.22 (30 °C) and -2.81 ± 0.31 (37 °C). In the same order, the values of UCACAGCAAUAUUACGAAAA are -3 ± 0.31 and -1.27 ± 0.17. Regarding CCAUAGCAAUAUUACGAGCU, the “self-splicing fitness (ln)” value runs as follows: (30 °C) -3.04 ± 0.36; (37 °C) -2.9 ± 0.47. Turning to GUUUAGCAAUAUUACGCCGA, the “self-splicing fitness (ln)” value (30 °C) was -2.93 ± 0.4.

For CGAGAGCAAUAUUACGCCGU, the “self-splicing fitness (ln)” value (30 °C) is -2.28 ± 0.49. On to GAAUAGCAAUAUUACGUAUU, for which the “self-splicing fitness (ln)” value is, setting by setting: (30 °C) -2.18 ± 0.15; (37 °C) -1.45 ± 0.14. Consider AACCAGCAAUAUUACGCCGC, for which the “self-splicing fitness (ln)” value is -4.1 ± 0.3 (30 °C) and -2.45 ± 0.35 (37 °C). In the same order, the values of AAUCAGCAAUAUUACGUGUC are -0.924 ± 0.053 and -0.319 ± 0.069. Regarding GUGCAGCAAUAUUACGACGG, under “37 °C”, the “self-splicing fitness (ln)” value was -2.73 ± 0.34.
